Experimental findings from article PMC12382605, “Dominant negative ADA2 mutations cause ADA2 deficiency in heterozygous carriers” (The Journal of Experimental Medicine, 2025) are described below.

Changes are numbered by the printed parent chain. Names may count otherwise.

Data set [1] has as its target T1, human WT ADA2, myc-FLAG-tagged (pCMV6) (human, UniProt Q9NZK5-1 30-511).
T1 sequence (looked up): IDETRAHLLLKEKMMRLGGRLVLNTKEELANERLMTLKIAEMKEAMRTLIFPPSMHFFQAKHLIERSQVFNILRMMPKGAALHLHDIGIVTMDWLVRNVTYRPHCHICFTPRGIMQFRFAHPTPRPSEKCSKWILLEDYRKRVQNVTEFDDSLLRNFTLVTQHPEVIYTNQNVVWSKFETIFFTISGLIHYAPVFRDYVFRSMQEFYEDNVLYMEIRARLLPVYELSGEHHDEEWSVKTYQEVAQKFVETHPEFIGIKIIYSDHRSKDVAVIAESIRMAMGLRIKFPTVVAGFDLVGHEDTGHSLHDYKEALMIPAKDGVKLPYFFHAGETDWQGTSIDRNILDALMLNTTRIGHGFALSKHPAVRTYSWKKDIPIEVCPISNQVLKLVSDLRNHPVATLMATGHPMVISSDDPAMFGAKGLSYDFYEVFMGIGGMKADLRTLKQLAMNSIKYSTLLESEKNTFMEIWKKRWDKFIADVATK
Description: cell-based or functional assay.

Data set [2] deals with the molecule itself. Description: native gel or EMSA; supernatant of HEK293T transfected with one ADA2 construct (homozygous condition), collected after 48 h; NativePAGE 4-16% Bis-Tris, western blot with anti-ADA2; dimer band quantified relative to WT100%.

B1: ADA2 variant G47A, myc-FLAG-tagged (pCMV6) (enzyme, human, UniProt Q9NZK5-1 30-511, looked up)
chain: T1 sequence (looked up) with G18A
notes: adenosine deaminase 2 (ADA2), human; site-directed mutant of the WT clone of transcript 3, NM_001282225 (OriGene RC238645); Pathogenic variant that occurs in patients; also called p.G47A; source: HEK293T, transfected; in supernatant and whole-cell lysate
Regarding B1, in data set [1], the “adenosine deaminase activity of whole-cell lysate and supernatant of HEK293T cotransfected with WT and variant ADA2 (heterozygous), relative to WT50%” value is < 75 % of WT50%. Further, the “residual dimer in the supernatant (% of WT100%)” value (shortened to “residual dimer … (% of WT100%)”) in data set [2] was ~48 % of WT100%.

B2: ADA2 variant R169Q, myc-FLAG-tagged (pCMV6) (enzyme, human, UniProt Q9NZK5-1 30-511, looked up)
chain: T1 sequence (looked up) with R140Q
As for B2, the “adenosine deaminase activity of the supernatant of HEK293T cotransfected with WT and variant ADA2 (heterozygous), relative to WT50%” value in data set [1] was 23 % of WT50%.

B3: ADA2 variant G47V, myc-FLAG-tagged (pCMV6) (enzyme, human, UniProt Q9NZK5-1 30-511, looked up)
chain: T1 sequence (looked up) with G18V
For the molecule B3, the “adenosine deaminase activity of the supernatant of HEK293T cotransfected with WT and variant ADA2 (heterozygous), relative to WT50%” value in data set [1] was 58 % of WT50%.

B4: ADA2 variant G47R, myc-FLAG-tagged (pCMV6) (enzyme, human, UniProt Q9NZK5-1 30-511, looked up)
chain: T1 sequence (looked up) with G18R
notes: adenosine deaminase 2 (ADA2), human; site-directed mutant of the WT clone of transcript 3, NM_001282225 (OriGene RC238645); Patient variant; also called p.G47R; source: HEK293T, transfected; in supernatant and whole-cell lysate
As to B4, the “adenosine deaminase activity of whole-cell lysate and supernatant of HEK293T cotransfected with WT and variant ADA2 (heterozygous), relative to WT50%” value in data set [1] was < 75 % of WT50%. Moreover, in data set [2], the “residual dimer … (% of WT100%)” value was ~53 % of WT100%.

B5: ADA2 variant Y453C, myc-FLAG-tagged (pCMV6) (enzyme, human, UniProt Q9NZK5-1 30-511, looked up)
chain: T1 sequence (looked up) with Y424C
Regarding B5, the “adenosine deaminase activity of whole-cell lysate and supernatant of HEK293T cotransfected with WT and variant ADA2 (heterozygous), relative to WT50%” value in data set [1] was 41 % of WT50%.

B6: ADA2 variant G47W, myc-FLAG-tagged (pCMV6) (enzyme, human, UniProt Q9NZK5-1 30-511, looked up)
chain: T1 sequence (looked up) with G18W
notes: adenosine deaminase 2 (ADA2), human; site-directed mutant of the WT clone of transcript 3, NM_001282225 (OriGene RC238645); Pathogenic variant that occurs in patients; source: HEK293T, transfected, in supernatant
In the case of B6, in data set [2], the “residual dimer … (% of WT100%)” value was ~9 % of WT100%.

B7: ADA2 variant E328K, myc-FLAG-tagged (pCMV6) (enzyme, human, UniProt Q9NZK5-1 30-511, looked up)
chain: T1 sequence (looked up) with E299K
Turning to B7, the “adenosine deaminase activity of whole-cell lysate and supernatant of HEK293T cotransfected with WT and variant ADA2 (heterozygous), relative to WT50%” value in data set [1] is < 75 % of WT50%.
